Results as given in paper PMC11224109, “Synthesis and preclinical evaluation of novel ^18F-vancomycin-based tracers for the detection of bacterial infections using positron emission tomography” (European Journal of Nuclear Medicine and Molecular Imaging, 2024).

What was measured:
[1] = Summary of tracer stability in vitro and in vivo
Method: Stability of the tracers was determined in PBS and human plasma. In a typical experiment, 1 MBq of radioactivity (10–20 µL) was added to 250 µL of PBS or human plasma. Samples were heated to 37 °C on a shaker and sampled at fixed intervals. For samples containing human plasma, protein was precipitated using two volumes of cold MeCN. Precipitated samples were briefly centrifuged to pellet the insoluble fraction and supernatant was used for stability assessment. Supernatant (1 µL) was loaded on a TLC plate and imaged using BAS-IP MS 2025 E plates (Fujifilm, Tokyo, Japan) on an Amersham Typhoon Biomolecular Imager (GE Healthcare Bio-Sciences Corp, Chicago, United States) equipped with a phosphor imaging stage. [^18F]BODIPY-FL-vancomycin has an Rf of 0.68 (petroleum ether/MeOH 3:1), [^18F]FB-vancomycin has an Rf of 0.66 (2 M NaOAc/MeOH 5:1). For [^18F]PQ-VE1-vancomycin, conditions described in [44] were used.

[2] = Distribution coefficient LogD7.4, shake-flask n-octanol/PBS; assay type: physicochemical; conditions: shake-flask n-octanol/PBS pH 7.4, 500 µL each, 10 µL tracer in saline, vortexed 30 s, shaken 15 min, gamma counter, mean ± SD
Method: The tracer distribution coefficient in n-octanol/PBS pH 7.4 (LogD7.4) was determined using a shake-flask methodology. To an Eppendorf tube containing 500 µL n-octanol and 500 µL PBS, 10 µL tracer solution in saline was added. The vial was vortexed for 30 s and placed on an Eppendorf shaker for 15 min. After incubation, layers were separated by centrifugation (1 min at 10.000 rpm) and a fraction of the n-octanol layer was pipetted off. To minimize contamination of the bottom layer with the n-octanol layer, the bottom PBS layer was collected by puncturing the bottom of the Eppendorf tube with a 22G needle and aspirating a fraction of the PBS layer. Collected fractions were weighted to correct for collected volume and subsequently measured on a calibrated gamma counter and corrected for decay. LogD7.4 was calculated as [drawing 1] .

in vivo = conditions: in vivo; for tissue uptake at 0.5 h / tissue uptake at 1 h / tissue uptake at 1.5 h: male, C57BL/6, mouse, 2 MBq, total radioactivity, Biodistribution
Method: All murine experiments were approved by the Animal Care and Use Committee of the University of Groningen under license protocol number 2114768-01-001. In vivo biodistribution was performed in male C57BL/6 mice (age 8 weeks, 25 g). Per tracer, the animals were divided in three groups based on the tracer distribution times (30 min, 60 min, and 90 min). […] Each experimental arm (i.e. time point) consisted of three animals. […] Tracer was administered at t = 0 via penile vein injection (2.0 ± 0.9 MBq in 100 µL 0.9% saline solution, Supplemental Table 2). After tracer administration, the animals were transferred to a Siemens Focus 220 microPET small animal scanner (Siemens, Munich, Germany) and scanned for the designated time, followed by a transmission scan of 10 min for attenuation correction. PET data were normalized and corrected for decay, after which the PET data were reconstructed using OSEM2D-Z1-SC-256. The PET data frames used for reconstruction were: 6 × 10 s, 4 × 30 s, 2 × 60 s, 120 s, 180 s, 4 × 300 s, 3 × 600 s, 1200 s or until the designated scan time was reached, taking into account a 10-min transmission scan following the emission scan. Next, animals were terminated, and organs harvested to assay biodistribution in a calibrated gamma counter (Wizard2, Perkin Elmer, Waltham, United States).

S. aureus = assay: In vitro tracer binding to S. aureus; set-up: species or system Staphylococcus aureus; conditions: clinical isolate, culture OD600 about 3.0, 37 °C, sampled at 0, 15 and 30 min, washed twice, gamma counter
Method: Single colonies of clinical S. aureus and E. coli isolates were used to inoculate TSB and incubated overnight. From the overnight cultures, fresh cultures were started and grown to an optical density at 600 nm (OD600) of approximately 3.0. Both strains were incubated with tracer (3.5 MBq in 1 mL 0.9% saline) in a water bath at 37 °C. The final tracer concentration was 120 kBq ± 28 (38.6 pg ± 9.1 and 0.5 pg ± 0.1 of [^18F]BODIPY-FL-vancomycin and [^18F]PQ-VE1-vancomycin, respectively) per mL culture. At fixed time intervals (0, 15 and 30 min), aliquots were collected (2.0 mL in a 2 mL Eppendorf tube) and washed twice with sterile PBS (1.0 mL per washing step). In each washing step, the bacteria were pelleted by centrifugation (10.000 rpm, 60 s) and resuspended in fresh PBS. […] Measurements were corrected for background and decay. Results are reported as counts per s (Bq). To correlate bound tracer with the number of bacteria in a sample, the bacterial suspensions (2 ×) were plated and CFUs were counted.

Q: With `Cc1cc(C)n2c1C=C1C=CC(CCC(=O)N(C)[C@H](CC(C)C)C(=O)N[C@H]3C(=O)N[C@@H](CC(N)=O)C(=O)N[C@H]4C(=O)N[C@H]5C(=O)N[C@H](C(=O)N[C@H](C(=O)O)c6cc(O)cc(O)c6-c6cc5ccc6O)[C@H](O)c5ccc(c(Cl)c5)Oc5cc4cc(c5O[C@@H]4O[C@H](CO)[C@@H](O)[C@H](O)[C@H]4O[C@H]4C[C@](C)(N)[C@H](O)[C@H](C)O4)Oc4ccc(cc4Cl)[C@H]3O)=[N+]1[B-]2(F)F` [[^18F]BODIPY-FL-vancomycin] as the compound, how does the Stability [1] read?
A: Stable in vitro and in vivo up to 2 h.

Q: And the LogD7.4 [2]?
A: -1.72 ± 0.02 (n = 10)

Q: And the tissue uptake at 0.5 h (in vivo; iv, Bladder)?
A: 4.83 %ID/g

Q: What about the tissue uptake at 1 h (in vivo; iv, Bladder) of the same compound?
A: 7.62 %ID/g

Q: And the tissue uptake at 1.5 h (in vivo; iv, Bladder)?
A: 9.43 %ID/g

Q: What about the tissue uptake at 0.5 h (in vivo; iv, Bone) of the same compound?
A: 1.2 %ID/g

Q: And the tissue uptake at 1 h (in vivo; iv, Bone)?
A: 2.71 %ID/g

Q: And the tissue uptake at 1.5 h (in vivo; iv, Bone)?
A: 3.27 %ID/g

Q: And the tissue uptake at 0.5 h (in vivo; iv, Brain)?
A: 0.05 %ID/g

Q: What about the tissue uptake at 1 h (in vivo; iv, Brain) of the same compound?
A: 0.09 %ID/g

Q: And the tissue uptake at 1.5 h (in vivo; iv, Brain)?
A: 0.05 %ID/g

Q: What about the tissue uptake at 0.5 h (in vivo; iv, Fat) of the same compound?
A: 0.59 %ID/g

Q: What about the tissue uptake at 1 h (in vivo; iv, Fat) of the same compound?
A: 0.67 %ID/g

Q: And the tissue uptake at 1.5 h (in vivo; iv, Fat)?
A: 0.49 %ID/g

Q: And the tissue uptake at 0.5 h (in vivo; iv, Heart)?
A: 0.96 %ID/g

Q: And the tissue uptake at 1 h (in vivo; iv, Heart)?
A: 1.25 %ID/g

Q: And the tissue uptake at 1.5 h (in vivo; iv, Heart)?
A: 0.81 %ID/g

Q: What about the tissue uptake at 0.5 h (in vivo; iv, Kidneys) of the same compound?
A: 7.77 %ID/g

Q: And the tissue uptake at 1 h (in vivo; iv, Kidneys)?
A: 7.13 %ID/g

Q: What about the tissue uptake at 1.5 h (in vivo; iv, Kidneys) of the same compound?
A: 7 %ID/g

Q: What about the tissue uptake at 0.5 h (in vivo; iv, Large intestine) of the same compound?
A: 0.93 %ID/g

Q: And the tissue uptake at 1 h (in vivo; iv, Large intestine)?
A: 1.34 %ID/g

Q: And the tissue uptake at 1.5 h (in vivo; iv, Large intestine)?
A: 0.91 %ID/g

Q: What about the tissue uptake at 0.5 h (in vivo; iv, Liver) of the same compound?
A: 2.27 %ID/g

Q: What about the tissue uptake at 1 h (in vivo; iv, Liver) of the same compound?
A: 3.47 %ID/g

Q: And the tissue uptake at 1.5 h (in vivo; iv, Liver)?
A: 2.86 %ID/g

Q: What about the tissue uptake at 0.5 h (in vivo; iv, Lungs) of the same compound?
A: 4.59 %ID/g

Q: And the tissue uptake at 1 h (in vivo; iv, Lungs)?
A: 6.68 %ID/g

Q: And the tissue uptake at 1.5 h (in vivo; iv, Lungs)?
A: 4.39 %ID/g

Q: And the tissue uptake at 0.5 h (in vivo; iv, Muscle)?
A: 0.42 %ID/g

Q: What about the tissue uptake at 1 h (in vivo; iv, Muscle) of the same compound?
A: 0.66 %ID/g

Q: What about the tissue uptake at 1.5 h (in vivo; iv, Muscle) of the same compound?
A: 0.46 %ID/g

Q: What about the tissue uptake at 0.5 h (in vivo; iv, Plasma) of the same compound?
A: 2.41 %ID/g

Q: And the tissue uptake at 1 h (in vivo; iv, Plasma)?
A: 3.25 %ID/g

Q: And the tissue uptake at 1.5 h (in vivo; iv, Plasma)?
A: 2.13 %ID/g

Q: And the tissue uptake at 0.5 h (in vivo; iv, Small intestine)?
A: 1.1 %ID/g

Q: And the tissue uptake at 1 h (in vivo; iv, Small intestine)?
A: 2.01 %ID/g

Q: What about the tissue uptake at 1.5 h (in vivo; iv, Small intestine) of the same compound?
A: 1.89 %ID/g

Q: What about the tissue uptake at 0.5 h (in vivo; iv, Spleen) of the same compound?
A: 1.41 %ID/g

Q: And the tissue uptake at 1 h (in vivo; iv, Spleen)?
A: 3.02 %ID/g

Q: And the tissue uptake at 1.5 h (in vivo; iv, Spleen)?
A: 2.73 %ID/g

Q: What about the tissue uptake at 0.5 h (in vivo; iv, Stomach) of the same compound?
A: 1.16 %ID/g

Q: What about the tissue uptake at 1 h (in vivo; iv, Stomach) of the same compound?
A: 1.59 %ID/g

Q: And the tissue uptake at 1.5 h (in vivo; iv, Stomach)?
A: 0.98 %ID/g

Q: What about the tissue uptake at 0.5 h (in vivo; iv, Whole blood) of the same compound?
A: 1.68 %ID/g

Q: And the tissue uptake at 1 h (in vivo; iv, Whole blood)?
A: 1.86 %ID/g

Q: And the tissue uptake at 1.5 h (in vivo; iv, Whole blood)?
A: 1.1 %ID/g

Q: And the Accumulation (in vivo; mouse)?
A: Accumulation in liver, kidneys and lungs

Q: What about the Muscle uptake (in vivo; mouse) of the same compound?
A: Low muscle uptake

Q: And the “Crossing of the blood-brain barrier (BBB)” value (in vivo; mouse, iv)?
A: no substantial signal was observed in the brain

Q: And the “Binding to S. aureus” value (S. aureus)?
A: rapid and selective binding to S. aureus
